Laboratory results: patent publication US20050272653A1 (ACCELERON PHARMA, published 2005)

Biological target: T1, BSA (bovine, UniProt P02769 25-607)
T1 construct: Control analyte in the BiaCore experiment
Assay: BiaCore CM5 chip, BMP3 pro-MuIgG2a amine coupled, BSA flowed over

T1 sequence (P02769 25-607 limits assumed): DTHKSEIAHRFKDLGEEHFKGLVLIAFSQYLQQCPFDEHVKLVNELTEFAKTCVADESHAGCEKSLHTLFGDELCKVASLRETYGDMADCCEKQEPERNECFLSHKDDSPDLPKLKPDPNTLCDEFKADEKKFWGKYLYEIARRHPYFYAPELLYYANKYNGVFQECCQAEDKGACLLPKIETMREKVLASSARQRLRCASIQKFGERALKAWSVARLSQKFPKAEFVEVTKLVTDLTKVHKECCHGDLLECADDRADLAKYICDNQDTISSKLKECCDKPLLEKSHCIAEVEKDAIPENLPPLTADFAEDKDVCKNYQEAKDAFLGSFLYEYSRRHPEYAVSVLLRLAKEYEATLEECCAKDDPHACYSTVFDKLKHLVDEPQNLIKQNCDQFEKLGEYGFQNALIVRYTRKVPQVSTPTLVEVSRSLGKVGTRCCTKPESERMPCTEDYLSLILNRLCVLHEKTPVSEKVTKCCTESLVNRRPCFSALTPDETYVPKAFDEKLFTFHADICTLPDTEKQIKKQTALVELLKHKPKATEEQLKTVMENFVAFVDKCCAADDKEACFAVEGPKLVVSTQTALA

binding result: no binding
B1: BMP3A propeptide-Murine IgG2a peptide Fc fusion protein (Fc fusion)
chain: ERPKPPFPELRKAVPGDRTAGGGPDSELQPQDKVSEHMLRLYDRYSTVQAARTPGSLEGGSQPWRPRLLREGNTVRSFRAAAAETLERKGLYIFNLTSLTKSENILSATLYFCIGELGNISLSCPVSGGCSHHAQRKHIQIDLSAWTLKFSRNQSQLLGHLSVDMAKSHRDIMSWLSKDITQFLRKAKENEEFLIGFNITSKGRQLPKRRLPFPEPYILVYANDAAISEPESVVSSLQGHRNFPTGTVPKWDSHIRAALSIERRKKRSTGVLLPLQNNELPGAEYQYKKDEVWEERKPYKTLQAQAPEKSKNKKKQRKGPHRKSQTLQFDEQTLKKARRK
notes: Expressed in HEK293 cells and purified on Protein A; highly glycosylated; also called BMP3 pro-MuIgG2a; BMP3 pro-MuIg2a; not shown: murine IgG2a Fc
